Test results from EP1878743A2, “Urotensin-II agonists and antagonists” (The Administrators of The Tulane Educational Fund, priority 2000, dated 2002).
Bridge positions count the residues as written; N and C are the ends. Square brackets hold non-standard residues; d marks the D form. Ends that are not written are not given here. Peptide text beside a SMILES is read from it. dDip = N[C@@H](C(=O)O)C(c1ccccc1)c1ccccc1; Phe(4-Cl) = N[C@@H](Cc1ccc(Cl)cc1)C(=O)O; Phe(4-F) = N[C@@H](Cc1ccc(F)cc1)C(=O)O; 2Nal = N[C@@H](Cc1ccc2ccccc2c1)C(=O)O; 3Pal = N[C@@H](Cc1cccnc1)C(=O)O; Tle = CC(C)(C)[C@H](N)C(=O)O; Nal = naphthylalanine

T1: U-II receptors (rat thoracic aorta tissue) (rat, UniProt P49684 1-386)
T1 sequence (looked up): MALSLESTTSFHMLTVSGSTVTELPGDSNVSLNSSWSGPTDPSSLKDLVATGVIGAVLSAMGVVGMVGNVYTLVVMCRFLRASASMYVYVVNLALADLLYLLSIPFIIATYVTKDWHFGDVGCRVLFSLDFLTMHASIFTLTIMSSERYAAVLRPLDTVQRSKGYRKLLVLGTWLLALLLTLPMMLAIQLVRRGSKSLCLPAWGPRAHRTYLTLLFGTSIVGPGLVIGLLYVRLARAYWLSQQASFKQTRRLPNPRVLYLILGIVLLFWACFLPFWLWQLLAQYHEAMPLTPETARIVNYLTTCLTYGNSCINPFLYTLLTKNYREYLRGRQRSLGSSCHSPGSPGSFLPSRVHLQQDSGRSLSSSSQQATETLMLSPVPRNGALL

T2: U-II receptors (Rattus norvegicus, UniProt P49684)
T2 construct: from tissue; host or cells: rat thoracic aorta (circular strips / rings)
T2 sequence (P49684 1-386): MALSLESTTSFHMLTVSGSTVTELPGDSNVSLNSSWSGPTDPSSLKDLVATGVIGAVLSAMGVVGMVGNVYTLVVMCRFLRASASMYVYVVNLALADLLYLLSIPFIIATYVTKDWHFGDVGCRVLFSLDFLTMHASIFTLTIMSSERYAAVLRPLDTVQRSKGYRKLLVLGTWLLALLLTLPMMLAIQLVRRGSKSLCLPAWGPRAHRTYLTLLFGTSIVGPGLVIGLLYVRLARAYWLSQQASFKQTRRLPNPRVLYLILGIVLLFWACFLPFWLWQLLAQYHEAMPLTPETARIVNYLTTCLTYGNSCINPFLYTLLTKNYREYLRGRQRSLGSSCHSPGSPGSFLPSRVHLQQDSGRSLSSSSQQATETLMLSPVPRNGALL

B1: Cpa-D-Cys-Tyr-D-Trp-Lys-Thr-Cys-Nal-NH2 (SEQ ID NO: 9) (peptide)
peptide: XXYXKTCX
modifications: Cpa (p-chlorophenylalanine) at 1; D-Cys at 2; D-Trp at 4; Nal (naphthylalanine) at 8; C-terminal amide

Biological target: U-II receptors (rat thoracic aorta tissue) (rat) (UniProt P49684)
Test: cell-based or functional assay
Details: not given

For “Cpa-c[D-Cys-Pal-D-Trp-Lys-Val-Cys]-Cpa-amide (SEQ ID NO: 4) (peptide)”, the IC50 against U-II-induced phasic contractions of circular rat thoracic aorta strips was 0.1 µM.

System: U-II Stimulation of Rat Aorta Phasic Contractions
Test: not given
Details: not given
Method: Example 2: Use of Rat Aorta Circular Strip for Assay U-II Antagonists
Male Sprague-Dawley rats (250-350 g), which had been quarantined for 5-7 days prior to the experiments, were sacrificed by decapitation (experiments were approved by the Advisory Committee For Animal Resources, Tulane University School of Medicine). The thoracic aorta was dissected, freed from connective tissue, and cut into rings of about 1.5 mm in width. The rings were suspended in a 15 ml organ bath containing high potassium Kreb's solution (9.15 g/L potassium chloride, 2.1 g/L sodium bicarbonate, 1.0 g/L glucose, 0.16 g/L potassium phosphate monobasic. 0.14 g/L magnesium sulfate (anhydr.), and 0.22 g/L calcium chloride (dihydr.))
Optimal tension was applied (0.2 g) to the tissues and the bath medium was maintained at 37°C and bubbled with a mixture of 95% O2/5% CO2. Prior to mounting in the organ bath, selected preparations were rubbed with a moistened cotton wool swab, in order to remove the endothelial cell layer, and the effect of this procedure was tested using an acetylcholine-relaxation test. (Gibson, A., Br. J. Pharmacol. 91:205 (1987)). The aorta rings were allowed to equilibrate for 90 min. at the optimal tensions. During the equilibration period, the bath solution was replaced every 15 min. Contractile responses of aortae rings to various concentrations of peptides were expressed in volts. Changes in arterial smooth muscle tension were recorded isometrically using a force-displacement transducer (Radnoti), and a AcqKnowledge ACK100 Version 3.2 (BIOPAC Systems, Inc., Santa Barbara, CA.)
In siliconized glass tubes, peptides were dissolved in dionized water at a concentration of 1 µg/1µL (stock solution) and then diluted 1:10 with sterile BSA-saline solution (0.1% BSA, fraction V, Sigma, St. Louis in 0.9% NaCl). All peptide solutions were prepared fresh directly before the experiments. Peptides in the concentration ranges of 10^-6 to 10^-12 M/L in a final volume of 16-80 µL were direcly introduced into the tested organ bath containing Krebs buffer continuously gassed with 95% O, and 5% CO2, and the aorta rings at an optimal resting tension (1 - 0.2g). Peptide-induced changes in tension of the aorta rings were recorded by force-displacement transducers and processed by the computer system BIOPAC Inc., as described above. Each ring was exposed to one peptide concentration only.
Various somatostatin (SRIF) antagonists were discovered to have the ability to block UII-induced phase contractions in the circular rat thoracic aorta strips. […] The polypeptide Cpa-c[D-Cys-Phe-Trp-Lys-Thr-Cys]-ValNH2 was also a strong U-II antagonist with an IC50 of 2nM. Table 1. SRIF Antagonist IC50s (nM) against U-II Stimulation of Rat Aorta Phasic Contractions

In order of falling IC50:
1. CC(C)[C@@H]1NC(=O)[C@H](CCCCN)NC(=O)[C@@H](Cc2c[nH]c3ccccc23)NC(=O)[C@H](Cc2c[nH]cn2)NC(=O)[C@H](NC(=O)[C@@H](N)Cc2ccc3ccccc3c2)CSSC[C@@H](C(=O)N[C@@H](C(N)=O)C(c2ccccc2)c2ccccc2)NC1=O [Nal-D-Cys-His-D-Trp-Lys-Val-Cys-D-Dip-NH2] (H-[2Nal][dC]H[dW]KVC[dDip]-NH2; disulfide 2-7; N-terminus assumed)  1.8 µM
2. CC(C)[C@@H]1NC(=O)[C@H](CCCCN)NC(=O)[C@@H](Cc2c[nH]c3ccccc23)NC(=O)[C@H](Cc2cccnc2)NC(=O)[C@H](NC(=O)[C@@H](N)Cc2ccc(F)cc2)CSSC[C@@H](C(=O)N[C@@H](Cc2ccc3ccccc3c2)C(N)=O)NC1=O [4Fpa-D-Cys-Pal-D-Trp-Lys-Val-Cys-Nal-NH2] (H-[Phe(4-F)][dC][3Pal][dW]KVC[2Nal]-NH2; disulfide 2-7; N-terminus assumed)  1.09 µM
3. CC(C)(C)[C@@H]1NC(=O)[C@H](CCCCN)NC(=O)[C@@H](Cc2c[nH]c3ccccc23)NC(=O)[C@H](Cc2cccnc2)NC(=O)[C@H](NC(=O)[C@@H](N)Cc2ccc(F)cc2)CSSC[C@@H](C(=O)N[C@@H](Cc2ccc3ccccc3c2)C(N)=O)NC1=O [4Fpa-D-Cys-Pal-D-Trp-Lys-Tle-Cys-Nal-NH2] (H-[Phe(4-F)][dC][3Pal][dW]K[Tle]C[2Nal]-NH2; disulfide 2-7; N-terminus assumed)  0.1 µM
4. CC(C)[C@@H]1NC(=O)[C@H](CCCCN)NC(=O)[C@@H](Cc2c[nH]c3ccccc23)NC(=O)[C@H](Cc2cccnc2)NC(=O)[C@H](NC(=O)[C@@H](N)Cc2ccc(Cl)cc2)CSSC[C@@H](C(=O)N[C@@H](Cc2ccc(Cl)cc2)C(N)=O)NC1=O [Cpa-c[D-Cys-Pal-D-Trp-Lys-Val-Cys]-Cpa-amide] (H-[Phe(4-Cl)][dC][3Pal][dW]KVC[Phe(4-Cl)]-NH2; disulfide 2-7)  ~0.1 µM
5. C[C@@H](O)[C@@H]1NC(=O)[C@H](CCCCN)NC(=O)[C@@H](Cc2c[nH]c3ccccc23)NC(=O)[C@H](Cc2ccc(O)cc2)NC(=O)[C@H](NC(=O)[C@@H](N)Cc2ccc(Cl)cc2)CSSC[C@@H](C(=O)N[C@@H](Cc2ccc3ccccc3c2)C(N)=O)NC1=O [Cpa-D-Cys-Tyr-D-Trp-Lys-Thr-Cys-Nal-NH2] (H-[Phe(4-Cl)][dC]Y[dW]KTC[2Nal]-NH2; disulfide 2-7; N-terminus assumed)  0.012 µM
6. CC(C)(C)[C@@H]1NC(=O)[C@H](CCCCN)NC(=O)[C@@H](Cc2c[nH]c3ccccc23)NC(=O)[C@H](Cc2cccnc2)NC(=O)[C@H](NC(=O)[C@@H](N)Cc2ccc(Cl)cc2)CSSC[C@@H](C(=O)N[C@@H](Cc2ccc3ccccc3c2)C(N)=O)NC1=O [Cpa-D-Cys-Pal-D-Trp-Lys-Tie-Cys-Nal-NH2] (H-[Phe(4-Cl)][dC][3Pal][dW]K[Tle]C[2Nal]-NH2; disulfide 2-7; N-terminus assumed)  0.01 µM
7. C[C@@H](O)[C@@H]1NC(=O)[C@H](CCCCN)NC(=O)[C@H](Cc2c[nH]c3ccccc23)NC(=O)[C@H](Cc2cccnc2)NC(=O)[C@H](NC(=O)[C@@H](N)Cc2ccc(Cl)cc2)CSSC[C@@H](C(=O)N[C@@H](Cc2ccc(Cl)cc2)C(N)=O)NC1=O [Cpa-D-Cys-Pal-Trp-Lys-Thr-Cys-Cpa-NH2]  0.002 µM

Biological target: T1, U-II receptors (rat thoracic aorta …)
Test: cell-based or functional assay
Details: not given

In order of rising “IC50 (nM) against U-II Stimulation of Rat Aorta Phasic Contractions” value:
1. [Phe(4-Cl)][dC][3Pal]WKTC[Phe(4-Cl)]-NH2 (disulfide 2-7 (inferred)) [Cpa-D-Cys-Pal-Trp-Lys-Thr-Cys-Cpa-NH2 (SEQ ID NO: 11)]  2 nM
2. [Phe(4-Cl)][dC][3Pal][dW]K[Tle]C[Nal]-NH2 (disulfide 2-7 (inferred)) [Cpa-D-Cys-Pal-D-Trp-Lys-Tie-Cys-Nal-NH2 (SEQ ID NO: 10)]  10 nM
3. B1  12 nM
4. [Phe(4-F)][dC][3Pal][dW]K[Tle]C[Nal]-NH2 (disulfide 2-7 (inferred)) [4Fpa-D-Cys-Pal-D-Trp-Lys-Tle-Cys-Nal-NH2 (SEQ ID NO: 8)]  100 nM
5. [Phe(4-F)][dC][3Pal][dW]KVC[Nal]-NH2 (disulfide 2-7 (inferred)) [4Fpa-D-Cys-Pal-D-Trp-Lys-Val-Cys-Nal-NH2 (SEQ ID NO: 7)]  1090 nM
6. [Nal][dC]H[dW]KVC[dDip]-NH2 (disulfide 2-7 (inferred)) [Nal-D-Cys-His-D-Trp-Lys-Val-Cys-D-Dip-NH2 (SEQ ID NO: 6)]  1800 nM

Biological target: T1, U-II receptors (rat thoracic aorta …)
Test: cell-based or functional assay
Details: not given
Remark: another data set of the same source

[Phe(4-Cl)][dC]FWKTCV-NH2 (disulfide 2-7 (inferred)) [Cpa-c[D-Cys-Phe-Trp-Lys-Thr-Cys]-Val-NH2 (SEQ ID NO: 5)] was tested, and the “IC50 against U-II-induced phasic contractions of circular rat thoracic aorta strips” value was 0.002 µM.

Biological target: T2, U-II receptors
Test: Binding to U-II receptors (rat aorta tissue)
Details: unit inferred

Work on `CC(C)[C@@H]1NC(=O)[C@H](CCCCN)NC(=O)[C@@H](Cc2c[nH]c3ccccc23)NC(=O)[C@H](Cc2cccnc2)NC(=O)[C@H](NC(=O)[C@@H](N)Cc2ccc(Cl)cc2)CSSC[C@@H](C(=O)N[C@@H](Cc2ccc(Cl)cc2)C(N)=O)NC1=O` [Cpa-c[D-Cys-Pal-D-Trp-Lys-Val-Cys]-Cpa-amide] (H-[Phe(4-Cl)][dC][3Pal][dW]KVC[Phe(4-Cl)]-NH2; disulfide 2-7) yielded a Kd of 0.24 µM.
